Two molecules from paper PMC12820974, “Zinc-Mediated Loading and Release of His-Tagged Recombinant Proteins in Self-Assembling Peptide Coacervates” (ACS Applied Bio Materials, 2025) can be followed below.

For series [1], the target named is EAKH6 self-assembling peptide (EAK16-II with a C-terminal hexa-histidine tag).
For series [2] the target is unchanged. The source holds these as a separate data set.
Series [3] concerns the molecule itself. As to the kind of experiment: Congo red staining (fluorescence microscopy and UV-vis absorbance); EAKH6 alone and with Zn2+ at molar ratios 1:20 to 20:1, incubated with Congo red in PBS overnight at room temperature; fibrils imaged, shift of absorbance from 500 to 540 nm.

Consider “Green Fluorescent Protein coexpressed with a hexahistidine tag”, for which the in vitro release of HisGFP from Ca2+:EAKH6 (10:1, without Zn2+) coacervates, control; released in 5 days in series [1] turned out to be 98%. Also, in series [2], the apparent diffusion (D app) of HisGFP out of Ca2+:EAKH6 coacervates (without Zn2+), control, from the release up to 8 h was 2.07e-11 m^2 s^-1 and the apparent diffusion (D app) of HisGFP out of Zn2+:EAKH6 coacervates, from the release up to 8 h came out at 6.7e-12 m^2 s^-1.

B1: EAKH6 self-assembling peptide (EAK16-II with a C-terminal hexa-histidine tag) (peptide)
peptide: Ac-AEAEAKAKAEAEAKAKHHHHHH-NH2
notes: hexa-histidine tag (H6) at the C-terminus; written as a part because Zn2+ bridges it to the His tag of the cargo protein; In the assays the peptide stood as self-assembled fibrils (coacervate), with ZnCl2 or CaCl2 where said; also called Zn2+:EAKH6 (its coacervate with zinc); Ca2+:EAKH6 (with calcium); source: synthetic peptide, custom-synthesized by Biomatek (>95% purity by HPLC)
For the molecule B1, in series [3], the binding result is listed as “binds”.
